Experimental data published in publication PMC12830800.

Biological target: Coxsackievirus A6 (CVA6) strain 54203/HeB/CHN/2012 mature virion (coxsackievirus A6 strain 54203/HeB/CHN/2012)

B1: His-tagged human KRM1 ectodomain (residues A23-G373) (domain or fragment)
chain: APSPGLGPECFTANGADYRGTQNWTALQGGKPCLFWNETFQHPYNTLKYPNGEGGLGEHNYCRNPDGDVSPWCYVAEHEDGVYWKYCEIPACQMPGNLGCYKDHGNPPPLTGTSKTSNKLTIQTCISFCRSQRFKFAGMESGYACFCGNNPDYWKYGEAASTECNSVCFGDHTQPCGGDGRIILFDTLVGACGGNYSAMSSVVYSPDFPDTYATGRVCYWTIRVPGASHIHFSFPLFDIRDSADMVELLDGYTHRVLARFHGRSRPPLSFNVSLDFVILYFFSDRINQAQGFAVLYQAVKEELPQERPAVNQTVAEVITEQANLSVSAARSSKVLYVITTSPSHPPQTVPG
share of A-particles among the particles after incubation of virions with KRM1 ectodomain (1:120, 35 min, room temperature; cryo-EM classification); none in the untreated sample: 69.8%
